One test has as its target Bmh1 (UniProt P29311). The test is described as follows: anti-FLAG co-IP, anti-V5 blot. The following applies: reference: wild type.
In test [1] the target is full-length 3xFLAG-tagged Nth1^S83A (S. cerevisiae) (UniProt P32356). The test is described as follows: co-IP; Nth1-3xFLAG precipitated with anti-FLAG M2 magnetic beads, Bmh1-V5 detected by blot; stationary phase cells recovered by dilution in 1% glucose minimal medium (5 min after glucose replenishment); 25 mM Tris-HCl pH 7.5, 150 mM NaCl, 5 mM CaCl2, 0.1% Triton X-100, 4 °C, 1 h.

Test [2] deals with T1, recombinant full-length 6xHis-tagged Nth1 phosphorylated in vitro with PKA (S. cerevisiae, UniProt P32356 1-751, fully phosphorylated with 3 nM PKA in vitro).
T1 construct: neutral trehalase Nth1, S. cerevisiae, full length, expressed from pET28a; also called 6xHis-Nth1
T1 sequence (looked up): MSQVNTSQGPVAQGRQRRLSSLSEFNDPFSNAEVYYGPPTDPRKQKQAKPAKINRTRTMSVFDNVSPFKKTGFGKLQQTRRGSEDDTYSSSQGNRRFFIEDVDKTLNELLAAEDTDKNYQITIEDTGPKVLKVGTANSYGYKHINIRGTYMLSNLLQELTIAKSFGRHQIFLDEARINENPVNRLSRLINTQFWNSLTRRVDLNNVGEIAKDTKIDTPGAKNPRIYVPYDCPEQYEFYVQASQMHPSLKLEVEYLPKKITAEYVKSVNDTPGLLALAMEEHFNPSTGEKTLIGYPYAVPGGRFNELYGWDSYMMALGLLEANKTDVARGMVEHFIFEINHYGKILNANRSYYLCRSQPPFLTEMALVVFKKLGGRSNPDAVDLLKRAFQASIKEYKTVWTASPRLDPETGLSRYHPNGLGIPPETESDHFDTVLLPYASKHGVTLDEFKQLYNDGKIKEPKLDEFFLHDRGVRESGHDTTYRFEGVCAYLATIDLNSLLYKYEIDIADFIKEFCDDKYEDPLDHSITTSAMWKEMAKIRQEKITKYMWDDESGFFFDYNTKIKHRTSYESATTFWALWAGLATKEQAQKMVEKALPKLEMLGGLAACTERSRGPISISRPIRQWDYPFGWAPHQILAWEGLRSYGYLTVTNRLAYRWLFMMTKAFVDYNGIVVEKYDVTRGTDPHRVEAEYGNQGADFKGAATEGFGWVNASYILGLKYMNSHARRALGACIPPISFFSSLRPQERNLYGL
The test is described as follows: phosphatase shielding assay (Phos-tag autoradiograph and mass spectrometry); 1 µM 6xHis-Nth1 phosphorylated with 3 nM PKA in presence or absence of Bmh1 (5:1, Bmh1:Nth1); at 30 min PKA inhibitor and lambda phosphatase (90 U/µl, 1 mM MnCl2) added. As to conditions: both partners purified.

Test [3] deals with T2, Nth1-Strep phosphorylated in vitro with PKA and CyclinB-Cdk1 (S. cerevisiae, UniProt P32356 1-751, full phosphorylation by Cdk1 (site S66) and partial phosphorylation of the PKA sites by PKA (15 nM or 1.5 nM) in vitro).
T2 construct: neutral trehalase Nth1, S. cerevisiae, full length, expressed from pASK-Iba3; also called Nth1-Strep-tagged; source: E. coli BL21(DE3)RP, purified (Strep-Tactin II Superflow), phosphorylated in vitro with PKA and cyclin B-Cdk1
T2 sequence (looked up): T1 sequence (looked up)
The test is described as follows: pull-down; called co-IP by the paper; 6xHis-Bmh1 from BL21RP lysate loaded on Chelating Sepharose and washed, mixed 10 min with in vitro phosphorylated Nth1-Strep (200 ng per sample); washed with 25 mM Tris-HCl pH 7.4, 150 mM NaCl, 5 mM CaCl2; bound Nth1-Strep detected by blot (StrepMAB-Classic). The following applies: both partners purified.

Consider Nth1 (from UniProt P32356) S60A, for which the percent of reference with Bmh1 (sites S60) was 30%.

Molecule Nth1 (from UniProt P32356) S66A displayed a percent of reference in the test with Bmh1 (sites S66) of 50%. With Nth1 (from UniProt P32356) S83A, the percent of reference with Bmh1 (sites S83) is under 10%. With “V5-tagged Bmh1 (from UniProt P29311 1-267) (natural protein)”, in test [1], the bound Bmh1, percent normalised to WT was under 10%.

B1: recombinant full-length 6xHis-tagged Bmh1 (natural protein, S. cerevisiae, UniProt P29311 1-267, looked up)
chain: MSTSREDSVYLAKLAEQAERYEEMVENMKTVASSGQELSVEERNLLSVAYKNVIGARRASWRIVSSIEQKEESKEKSEHQVELICSYRSKIETELTKISDDILSVLDSHLIPSATTGESKVFYYKMKGDYHRYLAEFSSGDAREKATNASLEAYKTASEIATTELPPTHPIRLGLALNFSVFYYEIQNSPDKACHLAKQAFDDAIAELDTLSEESYKDSTLIMQLLRDNLTLWTSDMSESGQAEDQQQQQQHQQQQPPAAAEGEAPK
notes: 14-3-3 protein Bmh1, S. cerevisiae, full length, expressed from pET28a; also called 6xHis-Bmh1; Bhm1; source: E. coli BL21(DE3)RP
Turning to B1, the binding result in test [2] and in test [3] was “binds” each time.

These data come from article PMC7806596, “Regulation of trehalase activity by multi-site phosphorylation and 14-3-3 interaction” (Scientific Reports, 2021).
